Measurements as given in patent publication US20240141007A1 (XILIO DEVELOPMENT, published 2024).
Positions count from the first letter of the chain named.

B1: UCM76 (Fc fusion)
chain 1: DKTHTCPPCPAPELLGGPSVFLFPPKPKDTLMISRTPEVTCVVVDVSHEDPEVKFNWYVDGVEVHNAKTKPREEQYASTYRVVSVLTVLHQDWLNGKEYKCKVSNKALPAPIEKTISKAKGQPREPQVYTLPPCRDELTKNQVSLWCLVKGFYPSDIAVEWESNGQPENNYKTTPPVLDSDGSFFLYSKLTVDKSRWQQGNVFSCSVMHEALHNRFTQKSLSLSPGGSPGAPTSSSTKKTQLQLEHLLLDLQMILNGINNYKNPKLTAMLTAKFAMPKKATELKHLQCLEEALKPLEEVLNLAQSKNFHLRPRDLISNINVIVLELKGSETTFMCEYADETATIVEFLNRWITFAQSIISTLT
chain 2: DKTHTCPPCPAPELLGGPSVFLFPPKPKDTLMISRTPEVTCVVVDVSHEDPEVKFNWYVDGVEVHNAKTKPREEQYASTYRVVSVLTVLHQDWLNGKEYKCKVSNKALPAPIEKTISKAKGQPREPQVCTLPPSRDELTKNQVSLSCAVKGFYPSDIAVEWESNGQPENNYKTTPPVLDSDGSFFLVSKLTVDKSRWQQGNVFSCSVMHEALHNHYTQMPYDLYHPNFMLTQPHSVSESPGKTVTISCTRSSGSIASNYVQWYQQRPGSSPTTVIYEDNQRPSGVPDRFSGSIDSSSNSASLTISGLKTEDEADYYCQTYDSIDVYFGGGTKLTVLGGGGGSGGGGSGGGGSGGGGSQLQLQESGPGLVKPSQTLSLTCTVSGGSISSGGYYWSWIRQHPGKGLEWIGYIYKSGSAYYSPSLKSRVTISVDTSKNQFSLKLSSVTAADTAVYYCARTPTVTGDWFDPWGRGTLVTVSS
B2: UCM75 (Fc fusion)
chain 1: DKTHTCPPCPAPELLGGPSVFLFPPKPKDTLMISRTPEVTCVVVDVSHEDPEVKFNWYVDGVEVHNAKTKPREEQYASTYRVVSVLTVLHQDWLNGKEYKCKVSNKALPAPIEKTISKAKGQPREPQVYTLPPCRDELTKNQVSLWCLVKGFYPSDIAVEWESNGQPENNYKTTPPVLDSDGSFFLYSKLTVDKSRWQQGNVFSCSVMHEALHNRFTQKSLSLSPGGSPG
chain 2: DKTHTCPPCPAPELLGGPSVFLFPPKPKDTLMISRTPEVTCVVVDVSHEDPEVKFNWYVDGVEVHNAKTKPREEQYASTYRVVSVLTVLHQDWLNGKEYKCKVSNKALPAPIEKTISKAKGQPREPQVCTLPPSRDELTKNQVSLSCAVKGFYPSDIAVEWESNGQPENNYKTTPPVLDSDGSFFLVSKLTVDKSRWQQGNVFSCSVMHEALHNHYTVPLSLYSGG
B3: UCM80 (Fc fusion)
chain 1: B2 chain 1
chain 2: B2 chain 2 with V218Q, L220V, Y223R, G226S
B4: UCM81 (Fc fusion)
chain 1: B2 chain 1
chain 2: B2 chain 2 with V218P, P219A, L220N, S221L, L222V, Y223A, S224P, G225D, G226P
B5: UCM79 (Fc fusion)
chain 1: B2 chain 1
chain 2: DKTHTCPPCPAPELLGGPSVFLFPPKPKDTLMISRTPEVTCVVVDVSHEDPEVKFNWYVDGVEVHNAKTKPREEQYASTYRVVSVLTVLHQDWLNGKEYKCKVSNKALPAPIEKTISKAKGQPREPQVCTLPPSRDELTKNQVSLSCAVKGFYPSDIAVEWESNGQPENNYKTTPPVLDSDGSFFLVSKLTVDKSRWQQGNVFSCSVMHEALHNHYTAPAGLIVPYN
B6: UCM77 (Fc fusion)
chain 1: B1 chain 1
chain 2: B2 chain 2 with V218R, P219A, L220A, S221A, L222V, Y223K, G225P
B7: UCM78 (Fc fusion)
chain 1: B2 chain 1
chain 2: B2 chain 2 with V218Q, P219R, L220P, S221L, L222A, Y223L, S224W, G225R, G226S

Biological target: T1, human FcRn (human, UniProt P55899 24-297; P61769 21-119)
T1 construct: also called hFcRn
Assay: SPR, hFcRn as ligand
Description: Surface Plasmon Resonance (SPR) protein binding assay was used to measure FcRn binding.

T1 sequence (P55899 24-297 limits assumed, chain 1 of 2): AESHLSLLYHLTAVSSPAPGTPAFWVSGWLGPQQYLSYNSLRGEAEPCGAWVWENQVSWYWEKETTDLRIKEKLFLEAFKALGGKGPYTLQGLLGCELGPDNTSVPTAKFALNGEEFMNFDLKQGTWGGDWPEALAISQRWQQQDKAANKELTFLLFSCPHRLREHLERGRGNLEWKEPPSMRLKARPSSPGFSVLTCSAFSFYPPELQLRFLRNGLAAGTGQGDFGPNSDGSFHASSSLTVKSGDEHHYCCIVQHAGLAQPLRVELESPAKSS
T1 sequence (P61769 21-119 limits assumed, chain 2 of 2): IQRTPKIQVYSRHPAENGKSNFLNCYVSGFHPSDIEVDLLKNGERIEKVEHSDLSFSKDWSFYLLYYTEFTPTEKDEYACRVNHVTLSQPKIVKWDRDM

Binder	Kd [µM]
B1	0.551
B2	1.49
B3	0.565
B4	1.1
B5	1.31
B6	0.312
B7	0.181
